Measured values: the supplement of paper PMC10219994
± gives the standard deviation of the averaged measurements.

B1: library; a variant is named by its letters at N, in order (parent)
chain: GAGACCGCAACTGAAAAGTTGTGGNNNNNATAGTGAGTCGCTGCCTGCAAAGACACAACT

Variants of: B1
Test: ligation selection enrichment (abundance after / before one-round selection) (fold); higher = more template-directed ligation activity
Settings: with T7Psub CACGGAUGCUAAUACGACUCACUAUA; MgCl2 25 mM; 42 °C; 4 h; pH 8.5
Summary of the method: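 In each of two independent experiments, 6 μM RNA substrate was reacted for 4 h at 42 °C with 0.75 μM of a T7-transcribed RNA ligase library randomized at five core positions, in buffer containing 50 mM EPPS pH 8.5 and 25 mM MgCl2. Only reads scoring ≥30 in quality at all randomized positions were counted after MiSeq sequencing. Each enrichment value is the ratio of abundance after ligation to abundance before ligation.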

Row | Variant | ligation selection enrichment
1 | TTGGT | 0.212 ± 0.12
2 | TTGGG | 0.218 ± 0.023
3 | TTGGC | 0.191 ± 0.053
4 | TTGGA | 0.294 ± 0.0019
5 | CTGTT | 0.3 ± 0.027
6 | CTGTC | 0.18 ± 0.017
7 | CTGTA | 0.136 ± 0.0097
8 | CTGTG | 0.195 ± 0.072
9 | ATTCC | 0.246 ± 0.02
10 | ATTCT | 0.471 ± 0.21
11 | ATTCA | 0.611 ± 0.08
12 | ATTCG | 3.01 ± 0.51
13 | ATCGA | 3.45 ± 0.064
14 | ATCGG | 0.801 ± 0.021
15 | ATCGT | 0.723 ± 0.28
16 | ATCGC | 0.48 ± 0.024
17 | ATCCT | 0.468 ± 0.17
18 | GTCCT | 0.266 ± 0.14
19 | ATTAG | 1.02 ± 0.19
20 | ATTAA | 0.524 ± 0.12
21 | ATTAT | 1.85 ± 0.22
22 | ATTAC | 0.217 ± 0.042
23 | ATTTT | 0.4707 ± 0.0023
24 | ATTTA | 0.445 ± 0.1

Row | Variant | ligation selection enrichment
25 | ATTTG | 4.54 ± 1.9
26 | ATTTC | 0.201 ± 0.0059
27 | ATGGT | 0.181 ± 0.092
28 | ATGGG | 0.265 ± 0.05
29 | ATGGC | 0.128 ± 0.0069
30 | ATGGA | 0.662 ± 0.029
31 | ATGTG | 0.566 ± 0.096
32 | ATGTT | 0.166 ± 0.064
33 | ATGTC | 0.1721 ± 0.0012
34 | ATGTA | 0.206 ± 0.024
35 | GTTCA | 0.545 ± 0.029
36 | GTTCG | 2.43 ± 0.41
37 | GTTCT | 0.587 ± 0.17
38 | GTTCC | 0.33 ± 0.069
39 | ATGAC | 1.69 ± 0.044
40 | ATGAG | 0.834 ± 0.057
41 | ATGAA | 0.823 ± 0.12
42 | ATGAT | 34.6 ± 8.1
43 | CTCGG | 0.161 ± 0.036
44 | CTCGT | 0.216 ± 0.13
45 | CTCGC | 0.141 ± 0.0066
46 | CTCGA | 0.501 ± 0.012
47 | GTTTC | 0.169 ± 0.068
48 | GTTTG | 2.05 ± 0.47

Row | Variant | ligation selection enrichment
49 | GTTTT | 0.277 ± 0.048
50 | GTTTA | 0.446 ± 0.026
51 | GTGAA | 1.7381 ± 0.00037
52 | GTGAG | 1.24 ± 0.03
53 | GTGAT | 89.4 ± 3
54 | GTGAC | 4.35 ± 0.17
55 | TTCCT | 0.443 ± 0.21
56 | TTCTG | 0.954 ± 0.089
57 | TTCTC | 0.0957 ± 0.032
58 | TTCTT | 0.119 ± 0.006
59 | TTCTA | 0.183 ± 0.035
60 | CTGAG | 0.724 ± 0.054
61 | CTGAT | 22 ± 5.4
62 | CTGAC | 1.07 ± 0.085
63 | CTGAA | 0.424 ± 0.0081
64 | TTTCT | 0.249 ± 0.052
65 | TTTCC | 0.258 ± 0.0071
66 | TTTCG | 0.632 ± 0.068
67 | TTTCA | 0.268 ± 0.026
68 | GTCTC | 0.116 ± 0.027
69 | GTCTA | 0.177 ± 0.024
70 | GTCTG | 0.554 ± 0.068
71 | GTCTT | 0.114 ± 0.069
72 | GTTAT | 1.54 ± 0.28

Row | Variant | ligation selection enrichment
73 | GTTAC | 0.3144 ± 0.0017
74 | GTTAG | 0.728 ± 0.01
75 | GTTAA | 0.876 ± 0.12
76 | ATGCG | 1.74 ± 0.19
77 | ATGCT | 0.505 ± 0.074
78 | ATGCA | 0.419 ± 0.021
79 | ATGCC | 0.176 ± 0.0063
80 | TTTGC | 0.319 ± 0.085
81 | TTTGG | 0.466 ± 0.024
82 | TTTGT | 0.164 ± 0.11
83 | TTTGA | 0.78 ± 0.039
84 | TTTTT | 0.314 ± 0.091
85 | TTTTC | 0.167 ± 0.027
86 | TTTTA | 0.205 ± 0.0097
87 | TTTTG | 1.05 ± 0.27
88 | CTTTT | 0.63109 ± 0.00025
89 | CTTTG | 1.41 ± 0.7
90 | CTTTC | 0.2049 ± 0.00081
91 | CTTTA | 0.398 ± 0.12
92 | TTGAT | 29.9 ± 7.4
93 | TTGAG | 0.82 ± 0.12
94 | TTGAA | 1.56 ± 0.22
95 | TTGAC | 3.32 ± 0.24
96 | TTGTA | 0.685 ± 0.11

Row | Variant | ligation selection enrichment
97 | TTGTT | 0.311 ± 0.15
98 | TTGTG | 0.223 ± 0.015
99 | TTGTC | 0.271 ± 0.021
100 | GTGCC | 0.209 ± 0.022
101 | GTGCT | 0.813 ± 0.23
102 | GTGCA | 0.307 ± 0.043
103 | GTGCG | 2.12 ± 0.13
104 | CTCTC | 0.116 ± 0.0082
105 | CTCTA | 0.182 ± 0.031
106 | CTCTG | 0.298 ± 0.058
107 | CTCTT | 0.133 ± 0.075
108 | ATTGA | 6.7 ± 0.45
109 | ATTGC | 0.765 ± 0.2
110 | ATTGG | 0.805 ± 0.035
111 | ATTGT | 0.543 ± 0.093
112 | CTCCG | 0.347 ± 0.032
113 | CTCCT | 0.503 ± 0.14
114 | GTTGC | 0.769 ± 0.034
115 | GTTGT | 0.353 ± 0.054
116 | GTTGG | 0.739 ± 0.059
117 | GTTGA | 5.22 ± 0.32
118 | CTTCG | 1.47 ± 0.55
119 | CTTCT | 0.681 ± 0.22
120 | CTTCA | 0.45 ± 0.093

Row | Variant | ligation selection enrichment
121 | CTTCC | 0.27 ± 0.03
122 | TTGCC | 0.231 ± 0.025
123 | TTGCG | 0.391 ± 0.012
124 | TTGCT | 0.947 ± 0.32
125 | TTGCA | 0.683 ± 0.015
126 | TTTAG | 0.504 ± 0.034
127 | TTTAA | 0.18 ± 0.0051
128 | TTTAC | 0.218 ± 0.013
129 | TTTAT | 1.19 ± 0.53
130 | ATCTA | 0.203 ± 0.01
131 | ATCTT | 0.102 ± 0.083
132 | ATCTG | 0.796 ± 0.041
133 | ATCTC | 0.078 ± 0.025
134 | CTGGG | 0.152 ± 0.051
135 | CTGGA | 0.282 ± 0.086
136 | CTGGC | 0.135 ± 0.021
137 | CTGGT | 0.18 ± 0.078
138 | GTGGC | 0.18 ± 0.0046
139 | GTGGA | 1.76 ± 0.068
140 | GTGGG | 0.31 ± 0.013
141 | GTGGT | 0.274 ± 0.0063
142 | CTGCG | 0.5 ± 0.22
143 | CTGCA | 0.147 ± 0.0049
144 | CTGCT | 0.833 ± 0.12

Row | Variant | ligation selection enrichment
145 | CTGCC | 0.138 ± 0.05
146 | TTCGG | 0.397 ± 0.024
147 | TTCGA | 2.1 ± 0.11
148 | TTCGC | 0.331 ± 0.0077
149 | TTCGT | 0.267 ± 0.029
150 | CTTAG | 0.243 ± 0.0061
151 | CTTAT | 0.512 ± 0.016
152 | CTTAC | 0.153 ± 0.015
153 | CTTAA | 0.257 ± 0.012
154 | CTTGA | 2.2 ± 0.37
155 | CTTGT | 0.413 ± 0.078
156 | CTTGC | 0.446 ± 0.26
157 | CTTGG | 0.278 ± 0.035
158 | GTGTC | 0.144 ± 0.015
159 | GTGTA | 0.265 ± 0.083
160 | GTGTG | 0.75 ± 0.1
161 | GTGTT | 0.277 ± 0.011
162 | GTCGT | 0.297 ± 0.13
163 | GTCGG | 0.443 ± 0.054
164 | GTCGA | 2.56 ± 0.37
165 | GTCGC | 0.371 ± 0.033
